# T1: StpA-CTD (Escherichia coli, UniProt P0ACG1 90-134)
# T1 chain: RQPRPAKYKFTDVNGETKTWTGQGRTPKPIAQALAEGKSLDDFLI
# Assays:
# [1] = target: T1, StpA-CTD; experiment: ITC; 5 C; n=1.93; 50 mM BisTris, 25 mM NaCl, pH 6.4; ITC at 5 and 25 C (40 uM RNA in cell, StpA-CTD 400/800/920 uM injected); NMR with 10% D2O, titration at 25 C; conditions: protein: recombinant; tags: none (His6-SUMOstar removed by SUMO protease); chain copies: 2; hairpin, locked 5'-fold
# [2] = target: T1, StpA-CTD; experiment: ITC; 25 C; n=1.80; 50 mM BisTris, 25 mM NaCl, pH 6.4; ITC at 5 and 25 C (40 uM RNA in cell, StpA-CTD 400/800/920 uM injected); NMR with 10% D2O, titration at 25 C; conditions: protein: recombinant; tags: none (His6-SUMOstar removed by SUMO protease); chain copies: 2; hairpin, locked 5'-fold
# [3] = target: T1, StpA-CTD; experiment: ITC; 5 C; n=1.78; 50 mM BisTris, 25 mM NaCl, pH 6.4; ITC at 5 and 25 C (40 uM RNA in cell, StpA-CTD 400/800/920 uM injected); NMR with 10% D2O, titration at 25 C; conditions: protein: recombinant; tags: none (His6-SUMOstar removed by SUMO protease); chain copies: 2; hairpin (3'-fold), 1 nt 5' overhang
# [4] = target: T1, StpA-CTD; experiment: ITC; 25 C; n=1.74; 50 mM BisTris, 25 mM NaCl, pH 6.4; ITC at 5 and 25 C (40 uM RNA in cell, StpA-CTD 400/800/920 uM injected); NMR with 10% D2O, titration at 25 C; conditions: protein: recombinant; tags: none (His6-SUMOstar removed by SUMO protease); chain copies: 2; hairpin (3'-fold), 1 nt 5' overhang
# [5] = target: T1, StpA-CTD; experiment: ITC; 5 C; n=2.21; 50 mM BisTris, 25 mM NaCl, pH 6.4; ITC at 5 and 25 C (40 uM RNA in cell, StpA-CTD 400/800/920 uM injected); NMR with 10% D2O, titration at 25 C; conditions: protein: recombinant; tags: none (His6-SUMOstar removed by SUMO protease); chain copies: 2; hairpin, locked 3'-fold
# [6] = target: T1, StpA-CTD; experiment: ITC; 25 C; n=2.33; 50 mM BisTris, 25 mM NaCl, pH 6.4; ITC at 5 and 25 C (40 uM RNA in cell, StpA-CTD 400/800/920 uM injected); NMR with 10% D2O, titration at 25 C; conditions: protein: recombinant; tags: none (His6-SUMOstar removed by SUMO protease); chain copies: 2; hairpin, locked 3'-fold
# [7] = target: T1, StpA-CTD; experiment: ITC; 5 C; n=1.74; 50 mM BisTris, 25 mM NaCl, pH 6.4; ITC at 5 and 25 C (40 uM RNA in cell, StpA-CTD 400/800/920 uM injected); NMR with 10% D2O, titration at 25 C; conditions: protein: recombinant; tags: none (His6-SUMOstar removed by SUMO protease); chain copies: 2; hairpin (5'-fold)
# [8] = target: T1, StpA-CTD; experiment: ITC; 25 C; n=1.69; 50 mM BisTris, 25 mM NaCl, pH 6.4; ITC at 5 and 25 C (40 uM RNA in cell, StpA-CTD 400/800/920 uM injected); NMR with 10% D2O, titration at 25 C; conditions: protein: recombinant; tags: none (His6-SUMOstar removed by SUMO protease); chain copies: 2; hairpin (5'-fold)
# [9] = target: T1, StpA-CTD; experiment: ITC; 5 C; n=1.84; 50 mM BisTris, 25 mM NaCl, pH 6.4; ITC at 5 and 25 C (40 uM RNA in cell, StpA-CTD 400/800/920 uM injected); NMR with 10% D2O, titration at 25 C; conditions: protein: recombinant; tags: none (His6-SUMOstar removed by SUMO protease); chain copies: 2
# [10] = target: T1, StpA-CTD; experiment: ITC; 25 C; n=1.93; 50 mM BisTris, 25 mM NaCl, pH 6.4; ITC at 5 and 25 C (40 uM RNA in cell, StpA-CTD 400/800/920 uM injected); NMR with 10% D2O, titration at 25 C; conditions: protein: recombinant; tags: none (His6-SUMOstar removed by SUMO protease); chain copies: 2
binder,measurement,setting,value
"GACCGGAAGGUCCGCCUUCC (structured_RNA, N1-methylguanosine at G6) [G6-m1G]",Kd,[1],16.3 ± 0.7 µM
same,Kd,[2],17.5 ± 1.3 µM
CGGAAGGUCCGCCUUCC (structured_RNA) [3'-HP],Kd,[3],11.3 ± 1.4 µM
same,Kd,[4],16.1 ± 2.6 µM
"GACCGGAAGGUCCGCCUUCC (structured_RNA, N6-dimethyladenosine at A2) [A2-DMA]",Kd,[5],8.31 ± 0.8 µM
same,Kd,[6],13.6 ± 1.6 µM
GACCGGAAGGUCC (structured_RNA) [5'-HP],Kd,[7],13.3 ± 3.7 µM
same,Kd,[8],24.7 ± 0.6 µM
GACCGGAAGGUCCGCCUUCC (structured_RNA) [bistable 20mer RNA],Kd,[9],9.4 ± 1.3 µM
same,Kd,[10],12.3 ± 1.7 µM

# From article PMC8565331, “The RNA chaperone StpA enables fast RNA refolding by destabilization of mutually exclusive base pairs within competing secondary structure elements”
